T1: Soluble mouse EPOR chimera protein (mouse, UniProt P14753 25-249)
T1 construct: Bought reagent (R&D Systems), amine-coupled to a carboxymethylated dextran SPR chip; it says only 'soluble' and 'chimera'; also called Receptor mouse EPOR chimera protein; erythropoietin receptor
T1 sequence (looked up): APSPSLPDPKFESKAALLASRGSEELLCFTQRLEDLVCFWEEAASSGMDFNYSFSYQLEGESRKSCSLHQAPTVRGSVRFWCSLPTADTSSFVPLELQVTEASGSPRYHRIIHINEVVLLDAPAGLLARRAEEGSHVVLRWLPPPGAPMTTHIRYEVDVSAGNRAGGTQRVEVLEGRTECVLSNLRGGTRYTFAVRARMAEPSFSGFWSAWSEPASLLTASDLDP

B1: SY-2 (peptide)
peptide: LQLHVLKAVSGLRTLTMIRRALG
notes: Synthetic 23-mer made as a monomer by solid phase synthesis; also called erythropoietin-induced peptide
B2: SY-3 (peptide)
peptide: LQLHVLKAVAGLRTLTMIRRALA
notes: as for B1
B3: SY-1 (peptide)
peptide: LQLHVLKAVSGLRTLTTLLRALG
notes: Synthetic 23-mer made as a monomer by solid phase synthesis; No terminal protecting group is stated for the peptide as tested; also called erythropoietin-induced peptide

Target: T1, Soluble mouse EPOR chimera protein
Assay: SPR (Reichert SR 7500C), mouse EPOR chimera amine-coupled on chip, peptide flowed at 5, 2.5 and 1.25 uM
Procedure: Specifically, the real-time SPR analysis was performed using Reichert SPR Biosensor SR 7500C equipment (Reichert Inc., NY, USA). Receptor mouse EPOR chimera protein (Soluble mouse EPOR chimera protein)(R&D Systems, Minneapolis, Minn., USA) was covalently bonded to a chip (BR-1005-39, Pharmacia Biosensor AB) coated with carboxy methylated dextran matrix by an amine coupling procedure using an amine coupling kit (BR-1000-50, GE Healthcare, USA) according to the manufacturer's manual. Peptides having concentrations of 5, 2.5 and 1.25 μM according to the present disclosure and scrambled peptides were tested by flowing at a flow rate of 5 μl/minute. In addition, the experiment was independently repeated to increase the accuracy. In addition, DMSO was flowed at 5 μl/minute to normalize the signal. After sufficiently inducing the binding of the peptide of an aspect to the receptor, regeneration was induced by injecting 20 μl/minute of 25 mM acetic acid into a sensor chip.

**Q.** For B1, which Kd is on record?
**A.** The Kd was 1550 µM.

**Q.** For B2, which Kd is on record?
**A.** Its Kd is 2160 µM.

**Q.** With B3 as the binder, how does the Kd read?
**A.** Its Kd is 1410 µM.
